Measurements taken from patent US20210032299A1 (Eli Lilly, published 2021).
Starred links: 1 amine or outer side, 2 acyl side, 3 side chain; linkers in the order of their positions; H or OH if unused. Non-standard residues stand in square brackets, D forms with d. Groups on a side chain read outwards from the residue. No end group written: not given here. *: point of attachment. C20 diacid = O=C(O)CCCCCCCCCCCCCCCCCCC(=O)*; γGlu = O=C(O)[C@H](CCC(=O)[*:2])N[*:1]; αMeF = C[C@](N)(Cc1ccccc1)C(=O)O; 4Pal = N[C@@H](Cc1ccncc1)C(=O)O; αMeL = CC(C)C[C@](C)(N)C(=O)O; AEEA = NCCOCCOCC(=O)O; Aib = CC(C)(N)C(=O)O

T1: human glucose-dependent insulinotropic peptide receptor (human, UniProt P48546 22-466)
T1 sequence (looked up): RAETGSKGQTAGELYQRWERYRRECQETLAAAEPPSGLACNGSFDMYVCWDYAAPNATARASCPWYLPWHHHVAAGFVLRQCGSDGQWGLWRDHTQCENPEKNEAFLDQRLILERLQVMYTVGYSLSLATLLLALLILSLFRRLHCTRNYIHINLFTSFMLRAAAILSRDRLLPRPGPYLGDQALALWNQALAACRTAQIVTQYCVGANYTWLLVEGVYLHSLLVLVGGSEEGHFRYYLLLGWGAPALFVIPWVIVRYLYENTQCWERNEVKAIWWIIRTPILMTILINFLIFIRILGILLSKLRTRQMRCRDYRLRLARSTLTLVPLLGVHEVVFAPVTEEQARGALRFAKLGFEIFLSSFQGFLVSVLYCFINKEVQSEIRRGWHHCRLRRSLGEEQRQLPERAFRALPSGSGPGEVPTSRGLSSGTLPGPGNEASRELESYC


What was measured:
Assay in all cases: cell-based or functional assay
human glucagon receptor = human glucagon receptor (human, UniProt P47871 26-477)
Sequence of human glucagon receptor (P47871 26-477): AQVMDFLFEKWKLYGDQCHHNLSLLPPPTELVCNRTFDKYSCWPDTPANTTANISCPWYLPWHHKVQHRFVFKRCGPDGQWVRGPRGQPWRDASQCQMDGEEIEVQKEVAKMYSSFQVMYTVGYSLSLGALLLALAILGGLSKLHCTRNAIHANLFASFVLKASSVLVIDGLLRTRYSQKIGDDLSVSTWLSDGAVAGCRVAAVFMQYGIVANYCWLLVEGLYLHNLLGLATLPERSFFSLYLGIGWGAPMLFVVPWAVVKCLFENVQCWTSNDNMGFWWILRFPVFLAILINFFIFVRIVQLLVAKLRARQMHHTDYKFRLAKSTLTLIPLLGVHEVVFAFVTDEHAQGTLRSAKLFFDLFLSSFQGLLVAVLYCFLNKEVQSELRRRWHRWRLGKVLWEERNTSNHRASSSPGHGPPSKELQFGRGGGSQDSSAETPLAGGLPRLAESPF

[1] = molecular target: T1, human glucose-dependent insulinotropic …
human GLP-1 receptor = human GLP-1 receptor (human, UniProt P43220 24-463)

| Binder | hGcgR cAMP Rel EC50 (human glucagon receptor) | hGIPR cAMP Rel EC50 [1] | hGLP1R cAMP Rel EC50 (human GLP-1 receptor) |
| --- | --- | --- | --- |
| Y[Aib]EGT[αMeF]ISDYSI[αMeL]LDKK([AEEA-AEEA-γGlu-C20 diacid])HQ[Aib]EFVE[4Pal]LLAAGPSSGAPPPS-NH2 (N-terminus assumed; SMILES CC[C@H](C)[C@H](NC(=O)[C@H](CO)NC(=O)[C@H](Cc1ccc(O)cc1)NC(=O)[C@H](CC(=O)O)NC(=O)[C@H](CO)NC(=O)[C@@H](NC(=O)[C@](C)(Cc1ccccc1)NC(=O)[C@@H](NC(=O)CNC(=O)[C@H](CCC(=O)O)NC(=O)C(C)(C)NC(=O)[C@@H](N)Cc1ccc(O)cc1)[C@@H](C)O)[C@@H](C)CC)C(=O)N[C@@](C)(CC(C)C)C(=O)N[C@@H](CC(C)C)C(=O)N[C@@H](CC(=O)O)C(=O)N[C@@H](CCCCN)C(=O)N[C@@H](CCCCNC(=O)COCCOCCNC(=O)COCCOCCNC(=O)CC[C@H](NC(=O)CCCCCCCCCCCCCCCCCCC(=O)O)C(=O)O)C(=O)N[C@@H](Cc1c[nH]cn1)C(=O)N[C@@H](CCC(N)=O)C(=O)NC(C)(C)C(=O)N[C@@H](CCC(=O)O)C(=O)N[C@@H](Cc1ccccc1)C(=O)N[C@H](C(=O)N[C@@H](CCC(=O)O)C(=O)N[C@@H](Cc1ccncc1)C(=O)N[C@@H](CC(C)C)C(=O)N[C@@H](CC(C)C)C(=O)N[C@@H](C)C(=O)N[C@@H](C)C(=O)NCC(=O)N1CCC[C@H]1C(=O)N[C@@H](CO)C(=O)N[C@@H](CO)C(=O)NCC(=O)N[C@@H](C)C(=O)N1CCC[C@H]1C(=O)N1CCC[C@H]1C(=O)N1CCC[C@H]1C(=O)N[C@@H](CO)C(N)=O)C(C)C) [Example 62] | > 5000 nM | 0.0116 nM | 58.2 nM |
| Y[Aib]EGTFISDYSI[αMeL]LDKK([AEEA-AEEA-γGlu-C20 diacid])HQ[Aib]EFVEYLLEAGPSSGAPPPS-NH2 (N-terminus assumed; SMILES CC[C@H](C)[C@H](NC(=O)[C@H](Cc1ccccc1)NC(=O)[C@@H](NC(=O)CNC(=O)[C@H](CCC(=O)O)NC(=O)C(C)(C)NC(=O)[C@@H](N)Cc1ccc(O)cc1)[C@@H](C)O)C(=O)N[C@@H](CO)C(=O)N[C@@H](CC(=O)O)C(=O)N[C@@H](Cc1ccc(O)cc1)C(=O)N[C@@H](CO)C(=O)N[C@H](C(=O)N[C@@](C)(CC(C)C)C(=O)N[C@@H](CC(C)C)C(=O)N[C@@H](CC(=O)O)C(=O)N[C@@H](CCCCN)C(=O)N[C@@H](CCCCNC(=O)COCCOCCNC(=O)COCCOCCNC(=O)CC[C@H](NC(=O)CCCCCCCCCCCCCCCCCCC(=O)O)C(=O)O)C(=O)N[C@@H](Cc1c[nH]cn1)C(=O)N[C@@H](CCC(N)=O)C(=O)NC(C)(C)C(=O)N[C@@H](CCC(=O)O)C(=O)N[C@@H](Cc1ccccc1)C(=O)N[C@H](C(=O)N[C@@H](CCC(=O)O)C(=O)N[C@@H](Cc1ccc(O)cc1)C(=O)N[C@@H](CC(C)C)C(=O)N[C@@H](CC(C)C)C(=O)N[C@@H](CCC(=O)O)C(=O)N[C@@H](C)C(=O)NCC(=O)N1CCC[C@H]1C(=O)N[C@@H](CO)C(=O)N[C@@H](CO)C(=O)NCC(=O)N[C@@H](C)C(=O)N1CCC[C@H]1C(=O)N1CCC[C@H]1C(=O)N1CCC[C@H]1C(=O)N[C@@H](CO)C(N)=O)C(C)C)[C@@H](C)CC) [Example 65] | 850 nM | 0.0346 nM | > 5000 nM |
| Y[Aib]EGTFISDYSI[αMeL]LDKK([AEEA-AEEA-γGlu-C20 diacid])HQ[Aib]EFVEYLLEQGPSSGAPPPS-NH2 (N-terminus assumed; SMILES CC[C@H](C)[C@H](NC(=O)[C@H](Cc1ccccc1)NC(=O)[C@@H](NC(=O)CNC(=O)[C@H](CCC(=O)O)NC(=O)C(C)(C)NC(=O)[C@@H](N)Cc1ccc(O)cc1)[C@@H](C)O)C(=O)N[C@@H](CO)C(=O)N[C@@H](CC(=O)O)C(=O)N[C@@H](Cc1ccc(O)cc1)C(=O)N[C@@H](CO)C(=O)N[C@H](C(=O)N[C@@](C)(CC(C)C)C(=O)N[C@@H](CC(C)C)C(=O)N[C@@H](CC(=O)O)C(=O)N[C@@H](CCCCN)C(=O)N[C@@H](CCCCNC(=O)COCCOCCNC(=O)COCCOCCNC(=O)CC[C@H](NC(=O)CCCCCCCCCCCCCCCCCCC(=O)O)C(=O)O)C(=O)N[C@@H](Cc1c[nH]cn1)C(=O)N[C@@H](CCC(N)=O)C(=O)NC(C)(C)C(=O)N[C@@H](CCC(=O)O)C(=O)N[C@@H](Cc1ccccc1)C(=O)N[C@H](C(=O)N[C@@H](CCC(=O)O)C(=O)N[C@@H](Cc1ccc(O)cc1)C(=O)N[C@@H](CC(C)C)C(=O)N[C@@H](CC(C)C)C(=O)N[C@@H](CCC(=O)O)C(=O)N[C@@H](CCC(N)=O)C(=O)NCC(=O)N1CCC[C@H]1C(=O)N[C@@H](CO)C(=O)N[C@@H](CO)C(=O)NCC(=O)N[C@@H](C)C(=O)N1CCC[C@H]1C(=O)N1CCC[C@H]1C(=O)N1CCC[C@H]1C(=O)N[C@@H](CO)C(N)=O)C(C)C)[C@@H](C)CC) [Example 63] | 1170 nM | 0.0398 nM | > 5000 nM |
| Y[Aib]EGTFISDYSI[αMeL]LDKK([AEEA-AEEA-γGlu-C20 diacid])HQ[Aib]EFVEYLLETGPSSGAPPPS-NH2 (N-terminus assumed; SMILES CC[C@H](C)[C@H](NC(=O)[C@H](Cc1ccccc1)NC(=O)[C@@H](NC(=O)CNC(=O)[C@H](CCC(=O)O)NC(=O)C(C)(C)NC(=O)[C@@H](N)Cc1ccc(O)cc1)[C@@H](C)O)C(=O)N[C@@H](CO)C(=O)N[C@@H](CC(=O)O)C(=O)N[C@@H](Cc1ccc(O)cc1)C(=O)N[C@@H](CO)C(=O)N[C@H](C(=O)N[C@@](C)(CC(C)C)C(=O)N[C@@H](CC(C)C)C(=O)N[C@@H](CC(=O)O)C(=O)N[C@@H](CCCCN)C(=O)N[C@@H](CCCCNC(=O)COCCOCCNC(=O)COCCOCCNC(=O)CC[C@H](NC(=O)CCCCCCCCCCCCCCCCCCC(=O)O)C(=O)O)C(=O)N[C@@H](Cc1c[nH]cn1)C(=O)N[C@@H](CCC(N)=O)C(=O)NC(C)(C)C(=O)N[C@@H](CCC(=O)O)C(=O)N[C@@H](Cc1ccccc1)C(=O)N[C@H](C(=O)N[C@@H](CCC(=O)O)C(=O)N[C@@H](Cc1ccc(O)cc1)C(=O)N[C@@H](CC(C)C)C(=O)N[C@@H](CC(C)C)C(=O)N[C@@H](CCC(=O)O)C(=O)N[C@H](C(=O)NCC(=O)N1CCC[C@H]1C(=O)N[C@@H](CO)C(=O)N[C@@H](CO)C(=O)NCC(=O)N[C@@H](C)C(=O)N1CCC[C@H]1C(=O)N1CCC[C@H]1C(=O)N1CCC[C@H]1C(=O)N[C@@H](CO)C(N)=O)[C@@H](C)O)C(C)C)[C@@H](C)CC) [Example 64] | 3070 nM | 0.0448 nM | > 5000 nM |
